According to the supplement of paper PMC11246515:
± gives the standard deviation of the averaged measurements.

Test: total protein half-life in vivo (active degradation + dilution); higher = more stable protein
[1] = E. coli NCM3722 delta-hslV, growth: N-lim chemostat, doubling time 6 h
[2] = E. coli NCM3722 delta-smpB, growth: N-lim chemostat, doubling time 6 h
[3] = E. coli NCM3722 delta-clpP, growth: N-lim chemostat, doubling time 6 h
[4] = E. coli NCM3722 delta-lon, growth: N-lim chemostat, doubling time 6 h
[5] = wild type E. coli NCM3722, growth: C-lim chemostat, doubling time 6 h
[6] = wild type E. coli NCM3722, growth: C-lim chemostat, doubling time 12 h
[7] = wild type E. coli NCM3722, growth: N-lim chemostat, doubling time 12 h
[8] = wild type E. coli NCM3722, growth: P-lim chemostat, doubling time 6 h
[9] = wild type E. coli NCM3722, growth: P-lim chemostat, doubling time 12 h
[10] = wild type E. coli NCM3722, growth: C-lim chemostat, doubling time 3 h
[11] = wild type E. coli NCM3722, growth: N-lim chemostat, doubling time 6 h
[12] = E. coli NCM3722 delta-clpP delta-lon delta-hslV, growth: N-lim chemostat, doubling time 6 h

Sequence	total protein half-life in vivo [1] [h]	total protein half-life in vivo [2] [h]	total protein half-life in vivo [3] [h]	total protein half-life in vivo [4] [h]	total protein half-life in vivo [5] [h]	total protein half-life in vivo [6] [h]	total protein half-life in vivo [7] [h]	total protein half-life in vivo [8] [h]	total protein half-life in vivo [9] [h]	total protein half-life in vivo [10] [h]	total protein half-life in vivo [11] [h]	total protein half-life in vivo [12] [h]
MGQSSQPHELGGGLKSRHVTMLSIAGVIGASLFVGSSVAIAEAGPAVLLAYLFAGLLVVMIMRMLAEMAVATPDTGSFSTYADKAIGRWAGYTIGWLYWWFWVLVIPLEANIAAMILHSWVPGIPIWLFSLVITLALTGSNLLSVKNYGEFEFWLALCKVIAILAFIFLGAVAISGFYPYAEVSGISRLWDSGGFMPNGFGAVLSAMLITMFSFMGAEIVTIAAAESDTPEKHIVRATNSVIWRISIFYLCSIFVVVALIPWNMPGLKAVGSYRSVLELLNIPHAKLIMDCVILLSVTSCLNSALYTASRMLYSLSRRGDAPAVMGKINRSKTPYVAVLLSTGAAFLTVVVNYYAPAKVFKFLIDSSGAIALLVYLVIAVSQLRMRKILRAEGSEIRLRMWLYPWLTWLVIGFITFVLVVMLFRPAQQLEVISTGLLAIGIICTVPIMARWKKLVLWQKTPVHNTR	0.975	1.1										
MILIIYAHPYPHHSHANKRMLEQARTLEGVEIRSLYQLYPDFNIDIAAEQEALSRADLIVWQHPMQWYSIPPLLKLWIDKVFSHGWAYGHGGTALHGKHLLWAVTTGGGESHFEIGAHPGFDVLSQPLQATAIYCGLNWLPPFAMHCTFICDDETLEGQARHYKQRLLEWQEAHHG [P0A754]	5.27	6.82	6.16	6.37	4.93	10.9 ± 0.14	10.5 ± 2.2	6.43 ± 0.21	10.3 ± 1.5			
MTPLRVFRKTTPLVNTIRLSLLPLAGLSFSAFAAQVNIAPGSLDKALNQYAAHSGFTLSVDASLTRGKQSNGLHGDYDVESGLQQLLDGSGLQVKPLGNNSWTLEPAPAPKEDALTVVGDWLGDARENDVFEHAGARDVIRREDFAKTGATTMREVLNRIPGVSAPENNGTGSHDLAMNFGIRGLNPRLASRSTVLMDGIPVPFAPYGQPQLSLAPVSLGNMDAIDVVRGGGAVRYGPQSVGGVVNFVTRAIPQDFGIEAGVEGQLSPTSSQNNPKETHNLMVGGTADNGFGTALLYSGTRGSDWREHSATRIDDLMLKSKYAPDEVHTFNSLLQYYDGEADMPGGLSRADYDADRWQSTRPYDRFWGRRKLASLGYQFQPDSQHKFNIQGFYTQTLRSGYLEQGKRITLSPRNYWVRGIEPRYSQIFMIGPSAHEVGVGYRYLNESTHEMRYYTATSSGQLPSGSSPYDRDTRSGTEAHAWYLDDKIDIGNWTITPGMRFEHIESYQNNAITGTHEEVSYNAPLPALNVLYHLTDSWNLYANTEGSFGTVQYSQIGKAVQSGNVEPEKARTWELGTRYDDGALTAEMGLFLINFNNQYDSNQTNDTVTARGKTRHTGLETQARYDLGTLTPTLDNVSIYASYAYVNAEIREKGDTYGNLVPFSPKHKGTLGVDYKPGNWTFNLNSDFQSSQFADNANTVKESADGSTGRIPGFMLWGARVAYDFGPQMADLNLAFGVKNIFDQDYFIRSYDDNNKGIYAGQPRTLYMQGSLKF		> 8	6.44 ± 0.23	6.48			> 16			3.66	5.3 ± 0.92	
MIVLPRRLSDEVADRVRALIDEKNLEAGMKLPAERQLAMQLGVSRNSLREALAKLVSEGVLLSRRGGGTFIRWRHDTWSEQNIVQPLKTLMADDPDYSFDILEARYAIEASTAWHAAMRATPGDKEKIQLCFEATLSEDPDIASQADVRFHLAIAEASHNIVLLQTMRGFFDVLQSSVKHSRQRMYLVPPVFSQLTEQHQAVIDAIFAGDADGARKAMMAHLSFVHTTMKRFDEDQARHARITRLPGEHNEHSREKNA [P0ACL7]		2.04	2.72		2.86 ± 0.55	2.72	2.87			1.28		5.57
MNSIFTEENLLAFTTAARFGSFSKAAEELGLTTSAISYTIKRMETGLDVVLFTRSTRSIELTESGRYFFRKATDLLNDFYAIKRRIDTISQGIEARVRICINQLLYTPKHTARLLQVLKKQFPTCQITVTTEVYNGVWDAIINNQANIAIGAPDTLLDGGGIDYTEIGAIRWAFAIAPDHPLAFVPEPIAESQLRLYPNIMVEDTAHTINKKVGWLLHGQESILVPDFNTKCQCQILGEGIGFLPDYMVREAMTQSLLVTRQIHNPRQDSRMLLATQHSATGQVTQWIKKQFAPNGILTGIYQDLLHREN												5.9
MKKVAIVGLGWLGMPLAMSLSARGWQVTGSKTTQDGVEAARMSGIDSYLLRMEPELVCDSDDLDALMDADALVITLPARRSGPGDEFYLQAVQELVDSALAHRIPRIIFTSSTSVYGDAQGTVKETTPRNPVTNSGRVLEELEDWLHNLPGTSVDILRLAGLVGPGRHPGRFFAGKTAPDGEHGVNLVHLEDVIGAITLLLQAPKGGHIYNICAPAHPARNVFYPQMARLLGLEPPQFRNSLDSGKGKIIDGSRICNELGFEYQYPDPLVMPLE [P0AD12]	4.63 ± 0.4	4.5 ± 0.096	4.52 ± 0.45	5.07 ± 0.57	5.019 ± 0.0077	8.76 ± 1.2	7.41 ± 0.52	5.61 ± 0.32	11.1 ± 0.28	3.06 ± 0.16	4.35 ± 0.44	4.79 ± 0.29
MRVLKFGGTSVANAERFLRVADILESNARQGQVATVLSAPAKITNHLVAMIEKTISGQDALPNISDAERIFAELLTGLAAAQPGFPLAQLKTFVDQEFAQIKHVLHGISLLGQCPDSINAALICRGEKMSIAIMAGVLEARGHNVTVIDPVEKLLAVGHYLESTVDIAESTRRIAASRIPADHMVLMAGFTAGNEKGELVVLGRNGSDYSAAVLAACLRADCCEIWTDVDGVYTCDPRQVPDARLLKSMSYQEAMELSYFGAKVLHPRTITPIAQFQIPCLIKNTGNPQAPGTLIGASRDEDELPVKGISNLNNMAMFSVSGPGMKGMVGMAARVFAAMSRARISVVLITQSSSEYSISFCVPQSDCVRAERAMQEEFYLELKEGLLEPLAVTERLAIISVVGDGMRTLRGISAKFFAALARANINIVAIAQGSSERSISVVVNNDDATTGVRVTHQMLFNTDQVIEVFVIGVGGVGGALLEQLKRQQSWLKNKHIDLRVCGVANSKALLTNVHGLNLENWQEELAQAKEPFNLGRLIRLVKEYHLLNPVIVDCTSSQAVADQYADFLREGFHVVTPNKKANTSSMDYYHQLRYAAEKSRRKFLYDTNVGAGLPVIENLQNLLNAGDELMKFSGILSGSLSYIFGKLDEGMSFSEATTLAREMGYTEPDPRDDLSGMDVARKLLILARETGRELELADIEIEPVLPAEFNAEGDVAAFMANLSQLDDLFAARVAKARDEGKVLRYVGNIDEDGVCRVKIAEVDGNDPLFKVKNGENALAFYSHYYQPLPLVLRGYGAGNDVTAAGVFADLLRTLSWKLGV	4.513 ± 0.01	4.13 ± 0.11	4.31 ± 0.13	4.89 ± 0.11	5.9 ± 0.22	13.5 ± 0.33	7.56 ± 0.76	6.53 ± 0.39	12.2 ± 0.26	3.08 ± 0.21	4.29 ± 0.33	5.65 ± 0.16
MQRLFLLVAVMLLSGCLTAPPKEAARPTLMPRAQSYKDLTHLPAPTGKIFVSVYNIQDETGQFKPYPASNFSTAVPQSATAMLVTALKDSRWFIPLERQGLQNLLNERKIIRAAQENGTVAINNRIPLQSLTAANIMVEGSIIGYESNVKSGGVGARYFGIGADTQYQLDQIAVNLRVVNVSTGEILSSVNTSKTILSYEVQAGVFRFIDYQRLLEGEVGYTSNEPVMLCLMSAIETGVIFLINDGIDRGLWDLQNKAERQNDILVKYRHMSVPPES [P0AEA2]							4.39					
MENAKMNSLIAQYPLVKDLVALKETTWFNPGTTSLAEGLPYVGLTEQDVQDAHARLSRFAPYLAKAFPETAATGGIIESELVAIPAMQKRLEKEYQQPISGQLLLKKDSHLPISGSIKARGGIYEVLAHAEKLALEAGLLTLDDDYSKLLSPEFKQFFSQYSIAVGSTGNLGLSIGIMSARIGFKVTVHMSADARAWKKAKLRSHGVTVVEYEQDYGVAVEEGRKAAQSDPNCFFIDDENSRTLFLGYSVAGQRLKAQFAQQGRIVDADNPLFVYLPCGVGGGPGGVAFGLKLAFGDHVHCFFAEPTHSPCMLLGVHTGLHDQISVQDIGIDNLTAADGLAVGRASGFVGRAMERLLDGFYTLSDQTMYDMLGWLAQEEGIRLEPSALAGMAGPQRVCASVSYQQMHGFSAEQLRNTTHLVWATGGGMVPEEEMNQYLAKGR	4.89 ± 0.1	4.517 ± 0.042	5.27 ± 1.2	5.43 ± 0.24		10 ± 1.9	7.88 ± 0.44	5.98 ± 0.35	11.2 ± 2.2	3.01 ± 0.033	4.91 ± 0.21	5.22 ± 0.27
